Assay results published in patent US20130171217A1, “ENZYMATIC PERACID GENERATION FOR USE IN SKIN CARE PRODUCTS” (E I DU PONT DE NEMOURS AND COMPANY, priority 2010, published 2013).
Where “and” joins values, the source holds several entries; their conditions need not be identical. Equal values may be shown once.

How the values were obtained:
[1] = One-step procedure on hair tresses, tress tensile strength; details: 10 μg/mL HC1121, pH 6.6, 50 mM phosphate, 8 cycles
[2] = Two-step treatment of hair tresses, color loss ΔE; details: 2500 μg/mL (E/H 10), 20 min/cycle, 1 cycle
[3] = One-step procedure on hair tresses, tress tensile strength; details: for hair tensile strength: pH 6.6, 10 μg/mL enzyme
Text: COM-TEN® Tensile Tester 95-VD (Com-Ten Industries, Pinellas Park, Fla.), fitted with a 100 lb. (˜45.4 kg) load-cell was used for tensile tests. In order to reduce sample slippage, 5 mm wide strips of industrial grade VELCRO® (Velcro USA, Manchester, N.H.) were attached to the inside edges of the clamps. Before testing the CALIBRATION was set to “off”, FORCE UNITS were set to “grams” and the distance between the clamps was adjusted to 3 cm. The test sample was soaked in water for 30 seconds. Excess moisture was removed by gentle absorption on a paper towel, leaving enough moisture in hair for it to qualify as being at 100% humidity level. The glued edges of the test sample were clamped at both upper and lower clamps in such a way that the VELCRO® strips held the hair just below the glue. Tester speed was set to ˜2.5 inches by adjusting the speed control knob. With the Force meter in RUN mode, TARE was set to ZERO to set the starting PEAK FORCE to 0. To start the test the DIRECTION toggle switch was pressed to UP position. At the conclusion of the test, when the sample failed, the DIRECTION switch was moved to STOP and the peak force was recorded. The hair was cut off along the edge of the clamps at both lower and upper clamps. The clamps were opened and the stubs were removed, dried in air and weighed. The difference in original sample weight and combined weights of the stubs was the weight of the hair undergoing tensile elongation, and this quantity was used to calculate the tensile strength.
Tensile Strength (N/mg hair)=Peak force (Newtons)/(Initial sample weight−weight of stubs)
The hair tresses in these examples were cut from the stock medium brown hair swatches that were custom made by International Hair Importers (Glendale, N.Y.). Each hair tress was glued at one end, and cut at 5 mm width and 4 cm long (excluding the glued portion), with 100+/−20 mg net hair weight. For each test condition, triplicates of hair tresses were used. In the one-step procedure, each hair tress was placed in a clean plastic weighing tray (VWR, Cat. #12577-053), then 1 mL of the perhydrolase HC1121 solution in a buffer was applied to the hair tress, and was rubbed into the hair tress with an applicator. Then calculated amount of triacetin and 30% H2O2 were applied onto each hair tress and rubbed into the hair tress which gave 200 mM triacetin and 100 mM H2O2. The hair tress sat in this reaction mixture for 30 min, before being washed thoroughly with tap water followed by paper towel dry. This completed a 30 min treatment cycle. The treatment cycle was repeated 16 times. Hair tress became lighter-colored and weakened during the treatment. After final rinse and air-drying, tensile strength tests as described in Example 25 were conducted on each hair tress to quantify hair weakening. In addition, L*, a*, b* color measurements were taken for each hair sample to quantify hair color loss, and L*, a*, b* color measurements were also taken for untreated hair as a reference for ΔE color difference calculations. ΔE was calculated in the standard way as ΔE=((L*−L*ref)^2+(a*−a*ref)^2+(b*−b*ref)^2)^0.5. […] At pH 6, when 30 μg/mL HC1121 was used which gave 0.3 μg/mg hair E/H ratio, the tensile strength of treated hair tress reduced to 1.9 N/mg hair, approaching 1.5 N/mg hair, the benchmark strength of hair treated with NAIR® cream for 5 min. At pH 7, when 30 μg/mL HC1121 was used, the tensile strength of treated hair tress was 0.3 N/mg hair, much less than the 1.5 N/mg hair benchmark. Therefore, proper concentration of enzyme at proper pH could weaken hair effectively. The measured hair color loss for treated hair tresses correlated well with the weakening of hair: the greater hair weakening, the greater hair color loss. […]

[4] = 200 mM TA/200 mM H2O2, 24 hr/cycle
[5] = 10 μg/mL HC1121, pH 6.6, 50 mM phosphate, 200 mM TA/100 mM H2O2, 24 hr/cycle, 8 cycles
[6] = 10 μg/mL HC1121, pH 6.6, 50 mM phosphate, 200 mM TA/200 mM H2O2, 24 hr/cycle, 8 cycles
[7] = 10 μg/mL HC1121, pH 6.6, 50 mM phosphate, 200 mM TA/300 mM H2O2, 24 hr/cycle, 8 cycles
[8] = 10 μg/mL HC1121, pH 6.6, 50 mM phosphate, 200 mM TA/500 mM H2O2, 24 hr/cycle, 8 cycles
[9] = 10 μg/mL HC1121, pH 6.6, 50 mM phosphate, 500 mM TA/500 mM H2O2, 24 hr/cycle, 8 cycles
[10] = one-step, 30 μg/mL enzyme, pH 6, 30 min × 16, listed as HC1121
[11] = one-step, 30 μg/mL enzyme, pH 7, 30 min × 16, listed as HC1121
[12] = one-step, pH 6.6, 50 mM buffer, 30 min/cycle X 16 cycles, SLES wash each cycle
[13] = one-step, pH 6.6, 50 mM buffer, 24 hr/cycle X 7 cycles, SLES wash each cycle
[14] = one-step, pH 6.6, 100 mM buffer, 30 min/cycle X 16 cycles, SLES wash each cycle

B1: C277S-HC263: C277S variant of Thermotoga maritima perhydrolase fused via a flexible linker to hair-binding domain HC263 (protein)
chain: MAFFDLPLEELKKYRPERYEEKDFDEFWEETLAESEKFPLDPVFERMESHLKTVEAYDVTFSGYRGQRIKGWLLVPKLEEEKLPCVVQYIGYNGGRGFPHDWLFWPSMGYICFVMDTRGQGSGWLKGDTPDYPEGPVDPQYPGFMTRGILDPRTYYYRRVFTDAVRAVEAAASFPQVDQERIVIAGGSQGGGIALAVSALSKKAKALLCDVPFLCHFRRAVQLVDTHPYAEITNFLKTHRDKEEIVFRTLSYFDGVNFAARAKIPALFSVGLMDNISPPSTVFAAYNYYAGPKEIRIYPYNNHEGGGSFQAVEQVKFLKKLFEKGGPGSGGAGSPGSAGGPGSPSAQSQLPDKHSGLHERAPQRYGPEPEPEPEPIPEPPKEAPVVIEKPKPKPKPKPKPPAHDHKNQKETHQRHAAGSGGGGSPHHHHHH
Strength N/mg Hair, replicate1 [1, 4]: 1.04 N/mg Hair
Strength N/mg Hair, replicate2 [1, 4]: 0.57 N/mg Hair
Strength N/mg Hair, replicate2 ([1]; 500 mM TA/500 mM H2O2, 24 hr/cycle): 0.55 N/mg Hair
ΔE of color loss [2]: 2
Strength N/mg Hair, average [3, 5]: 1.19 N/mg Hair
Strength N/mg Hair, replicate1 [3, 5]: 1.08 N/mg Hair
Strength N/mg Hair, replicate2 [3, 5]: 1.40 N/mg Hair
Strength N/mg Hair, replicate3 [3, 5]: 1.09 N/mg Hair
Strength N/mg Hair, average [3, 6]: 0.86 N/mg Hair
Strength N/mg Hair, replicate3 [3, 6]: 0.99 N/mg Hair
Strength N/mg Hair, average [3, 7]: 0.55 N/mg Hair
Strength N/mg Hair, replicate1 [3, 7]: 0.58 N/mg Hair
Strength N/mg Hair, replicate2 [3, 7]: 0.50 N/mg Hair
Strength N/mg Hair, replicate3 [3, 7]: 0.57 N/mg Hair
Strength N/mg Hair, average [3, 8]: 0.45 N/mg Hair
Strength N/mg Hair, replicate1 [3, 8]: 0.39 N/mg Hair
Strength N/mg Hair, replicate2 [3, 8]: 0.38 N/mg Hair
Strength N/mg Hair, replicate3 [3, 8]: 0.58 N/mg Hair
Strength N/mg Hair, average [3, 9]: 0.53 N/mg Hair
Strength N/mg Hair, replicate1 [3, 9]: 0.53 N/mg Hair
Strength N/mg Hair, replicate3 [3, 9]: 0.49 N/mg Hair
Strength, replicates 1-3 ([3]; one-step, 5 μg/mL enzyme, pH 6, 200 mM triacetin, 100 mM H2O2, 30 min × 16, listed as HC1121): 2.89 N/mg Hair and 3.16 N/mg Hair and 3.03 N/mg Hair
Strength, average ([3]; one-step, 5 μg/mL enzyme, pH 6, 30 min × 16): 3.03 N/mg Hair
Strength, average ([3]; one-step, 15 μg/mL enzyme, pH 6, 30 min × 16): 2.95 N/mg Hair
Strength, replicates 1-3 ([3]; one-step, 15 μg/mL enzyme, pH 6, 30 min × 16, listed as HC1121): 3.58 N/mg Hair and 2.54 N/mg Hair and 2.72 N/mg Hair
Strength, average [3, 10]: 1.9 N/mg Hair and 1.86 N/mg Hair
Strength, replicates 1-3 [3, 10]: 1.77 N/mg Hair and 1.86 N/mg Hair and 1.95 N/mg Hair
Strength, average [3, 11]: 0.3 N/mg Hair and 0.32 N/mg Hair
Strength, replicates 1-3 [3, 11]: 0.31 N/mg Hair and 0.33 N/mg Hair (2×)
hair tensile strength ([3]; one-step, 200 mM triacetin, 100 mM H2O2, 8 cycles of 24 hr): 1.2 N/mg hair
hair tensile strength ([3]; one-step, H2O2 over 300 mM, 8 cycles of 24 hr): about 0.5 N/mg hair
Strength N/mg Hair, average [3, 12]: 0.65 N/mg Hair
Strength N/mg Hair, replicate1 [3, 12]: 0.59 N/mg Hair
Strength N/mg Hair, replicate2 [3, 12]: 0.50 N/mg Hair
Strength N/mg Hair, replicate3 [3, 12]: 0.85 N/mg Hair
Strength N/mg Hair, average [3, 13]: 0.82 N/mg Hair
Strength N/mg Hair, replicate1 [3, 13]: 0.86 N/mg Hair
Strength N/mg Hair, replicate2 [3, 13]: 0.94 N/mg Hair
Strength N/mg Hair, replicate3 [3, 13]: 0.66 N/mg Hair
Strength N/mg Hair, average [3, 14]: 0.30 N/mg Hair
Strength N/mg Hair, replicate1 [3, 14]: 0.22 N/mg Hair
Strength N/mg Hair, replicate2 [3, 14]: 0.34 N/mg Hair
Strength N/mg Hair, replicate3 [3, 14]: 0.35 N/mg Hair
